Measurements: paper PMC10786891, “Massively parallel profiling of RNA-targeting CRISPR-Cas13d”

T1: EsCas13d, nuclease-dead (Eubacterium siraeum, UniProt B0MS50, R295A;H300A;R849A;H854A)
T1 sequence: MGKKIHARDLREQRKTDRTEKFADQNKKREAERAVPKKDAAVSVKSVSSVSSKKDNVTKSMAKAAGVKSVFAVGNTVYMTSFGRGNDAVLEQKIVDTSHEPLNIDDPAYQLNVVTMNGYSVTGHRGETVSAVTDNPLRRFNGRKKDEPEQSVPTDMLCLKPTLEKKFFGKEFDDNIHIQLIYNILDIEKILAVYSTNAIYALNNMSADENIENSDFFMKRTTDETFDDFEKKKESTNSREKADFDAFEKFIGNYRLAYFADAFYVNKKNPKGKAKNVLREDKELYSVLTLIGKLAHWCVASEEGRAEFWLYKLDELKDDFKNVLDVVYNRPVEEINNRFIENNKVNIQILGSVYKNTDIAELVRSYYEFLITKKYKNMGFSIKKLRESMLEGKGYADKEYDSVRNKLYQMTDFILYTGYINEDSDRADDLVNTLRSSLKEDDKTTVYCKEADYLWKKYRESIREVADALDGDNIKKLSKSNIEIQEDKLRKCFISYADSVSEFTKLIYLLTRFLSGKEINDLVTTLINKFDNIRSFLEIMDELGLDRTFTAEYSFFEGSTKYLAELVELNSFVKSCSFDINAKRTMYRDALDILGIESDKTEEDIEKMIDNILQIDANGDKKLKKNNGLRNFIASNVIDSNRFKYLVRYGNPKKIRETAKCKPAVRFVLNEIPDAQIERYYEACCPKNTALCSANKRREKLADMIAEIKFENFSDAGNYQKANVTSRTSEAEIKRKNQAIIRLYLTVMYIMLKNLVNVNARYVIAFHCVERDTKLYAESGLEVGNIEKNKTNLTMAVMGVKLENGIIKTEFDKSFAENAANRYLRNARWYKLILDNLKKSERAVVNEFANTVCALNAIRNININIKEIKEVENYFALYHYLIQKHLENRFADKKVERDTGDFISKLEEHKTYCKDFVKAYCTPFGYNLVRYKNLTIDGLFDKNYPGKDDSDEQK

B1: target 1 insA 3' of 11,insG 3' of 9 (mixed)
RNA 1: CACCCGUGCAAAAAUGCAGGGGUCUAAAACUGAGCGGAUAACCUCUCUAUGG
RNA 2: GGGAAUGGAUCCACAUCUACGAAUUCGUACCAUAGAGAGGUAUAGUCCGCUCACCGAGAUCGGAAGAGCACACGU
B2: target 1 insU 3' of 13,insA 3' of 8 (mixed)
RNA 1: CACCCGUGCAAAAAUGCAGGGGUCUAAAACUGAGCGGAUAACCUCUCUAUGG
RNA 2: GGGAAUGGAUCCACAUCUACGAAUUCGUACCAUAGAGAGUGUUAUACCGCUCACCGAGAUCGGAAGAGCACACGU
B3: target 1 insA 3' of 15,insU 3' of 15 (mixed)
RNA 1: CACCCGUGCAAAAAUGCAGGGGUCUAAAACUGAGCGGAUAACCUCUCUAUGG
RNA 2: GGGAAUGGAUCCACAUCUACGAAUUCGUACCAUAGAGAUAGGUUAUCCGCUCACCGAGAUCGGAAGAGCACACGU
B4: target 1 G13A,C21U (mixed)
RNA 1: CACCCGUGCAAAAAUGCAGGGGUCUAAAACUGAGCGGAUAACCUCUCUAUGG
RNA 2: GGGAAUGGAUCCACAUCUACGAAUUCGUACUAUAGAGAAGUUAUCCGCUCACCGAGAUCGGAAGAGCACACGU
B5: target 1 insG 3' of 8,insA 3' of 6 (mixed)
RNA 1: CACCCGUGCAAAAAUGCAGGGGUCUAAAACUGAGCGGAUAACCUCUCUAUGG
RNA 2: GGGAAUGGAUCCACAUCUACGAAUUCGUACCAUAGAGAGGUUAUGCCAGCUCACCGAGAUCGGAAGAGCACACGU
B6: target 1 insG 3' of 18,insU 3' of 18 (mixed)
RNA 1: CACCCGUGCAAAAAUGCAGGGGUCUAAAACUGAGCGGAUAACCUCUCUAUGG
RNA 2: GGGAAUGGAUCCACAUCUACGAAUUCGUACCAUAGUGAGAGGUUAUCCGCUCACCGAGAUCGGAAGAGCACACGU
B7: target 1 C7U,C22U (mixed)
RNA 1: CACCCGUGCAAAAAUGCAGGGGUCUAAAACUGAGCGGAUAACCUCUCUAUGG
RNA 2: GGGAAUGGAUCCACAUCUACGAAUUCGUAUCAUAGAGAGGUUAUUCGCUCACCGAGAUCGGAAGAGCACACGU
B8: target 1 G15C,G17A (mixed)
RNA 1: CACCCGUGCAAAAAUGCAGGGGUCUAAAACUGAGCGGAUAACCUCUCUAUGG
RNA 2: GGGAAUGGAUCCACAUCUACGAAUUCGUACCAUAAACAGGUUAUCCGCUCACCGAGAUCGGAAGAGCACACGU
B9: target 1 insG 3' of 21,insA 3' of 10 (mixed)
RNA 1: CACCCGUGCAAAAAUGCAGGGGUCUAAAACUGAGCGGAUAACCUCUCUAUGG
RNA 2: GGGAAUGGAUCCACAUCUACGAAUUCGUACCGAUAGAGAGGUUAAUCCGCUCACCGAGAUCGGAAGAGCACACGU
B10: target 1 C7A,G13U (mixed)
RNA 1: CACCCGUGCAAAAAUGCAGGGGUCUAAAACUGAGCGGAUAACCUCUCUAUGG
RNA 2: GGGAAUGGAUCCACAUCUACGAAUUCGUACCAUAGAGAUGUUAUACGCUCACCGAGAUCGGAAGAGCACACGU
B11: target 1 del2,del8 (mixed)
RNA 1: CACCCGUGCAAAAAUGCAGGGGUCUAAAACUGAGCGGAUAACCUCUCUAUGG
RNA 2: GGGAAUGGAUCCACAUCUACGAAUUCGUACCAUAGAGAGGUUACCGCUACCGAGAUCGGAAGAGCACACGU
B12: target 1 insG 3' of 22,insG 3' of 22 (mixed)
RNA 1: CACCCGUGCAAAAAUGCAGGGGUCUAAAACUGAGCGGAUAACCUCUCUAUGG
RNA 2: GGGAAUGGAUCCACAUCUACGAAUUCGUACGGCAUAGAGAGGUUAUCCGCUCACCGAGAUCGGAAGAGCACACGU
B13: target 1 insU 3' of 18,insA 3' of 3 (mixed)
RNA 1: CACCCGUGCAAAAAUGCAGGGGUCUAAAACUGAGCGGAUAACCUCUCUAUGG
RNA 2: GGGAAUGGAUCCACAUCUACGAAUUCGUACCAUAUGAGAGGUUAUCCGCUACACCGAGAUCGGAAGAGCACACGU
B14: target 1 C6A,A9C (mixed)
RNA 1: CACCCGUGCAAAAAUGCAGGGGUCUAAAACUGAGCGGAUAACCUCUCUAUGG
RNA 2: GGGAAUGGAUCCACAUCUACGAAUUCGUACCAUAGAGAGGUUCUCAGCUCACCGAGAUCGGAAGAGCACACGU
B15: target 1 G12U,C22A (mixed)
RNA 1: CACCCGUGCAAAAAUGCAGGGGUCUAAAACUGAGCGGAUAACCUCUCUAUGG
RNA 2: GGGAAUGGAUCCACAUCUACGAAUUCGUAACAUAGAGAGUUUAUCCGCUCACCGAGAUCGGAAGAGCACACGU
B16: target 1 U8A,G15A (mixed)
RNA 1: CACCCGUGCAAAAAUGCAGGGGUCUAAAACUGAGCGGAUAACCUCUCUAUGG
RNA 2: GGGAAUGGAUCCACAUCUACGAAUUCGUACCAUAGAAAGGUUAACCGCUCACCGAGAUCGGAAGAGCACACGU
B17: target 1 C2U,G17U (mixed)
RNA 1: CACCCGUGCAAAAAUGCAGGGGUCUAAAACUGAGCGGAUAACCUCUCUAUGG
RNA 2: GGGAAUGGAUCCACAUCUACGAAUUCGUACCAUAUAGAGGUUAUCCGCUUACCGAGAUCGGAAGAGCACACGU
B18: target 1 insC 3' of 15,insG 3' of 7 (mixed)
RNA 1: CACCCGUGCAAAAAUGCAGGGGUCUAAAACUGAGCGGAUAACCUCUCUAUGG
RNA 2: GGGAAUGGAUCCACAUCUACGAAUUCGUACCAUAGAGCAGGUUAUCGCGCUCACCGAGAUCGGAAGAGCACACGU
B19: target 1 insA 3' of 7,insA 3' of 5 (mixed)
RNA 1: CACCCGUGCAAAAAUGCAGGGGUCUAAAACUGAGCGGAUAACCUCUCUAUGG
RNA 2: GGGAAUGGAUCCACAUCUACGAAUUCGUACCAUAGAGAGGUUAUCACGACUCACCGAGAUCGGAAGAGCACACGU
B20: target 1 C2U,C6A (mixed)
RNA 1: CACCCGUGCAAAAAUGCAGGGGUCUAAAACUGAGCGGAUAACCUCUCUAUGG
RNA 2: GGGAAUGGAUCCACAUCUACGAAUUCGUACCAUAGAGAGGUUAUCAGCUUACCGAGAUCGGAAGAGCACACGU
B21: target 1 insC 3' of 18,insA 3' of 2 (mixed)
RNA 1: CACCCGUGCAAAAAUGCAGGGGUCUAAAACUGAGCGGAUAACCUCUCUAUGG
RNA 2: GGGAAUGGAUCCACAUCUACGAAUUCGUACCAUACGAGAGGUUAUCCGCUCAACCGAGAUCGGAAGAGCACACGU
B22: target 1 insA 3' of 22,insC 3' of 20 (mixed)
RNA 1: CACCCGUGCAAAAAUGCAGGGGUCUAAAACUGAGCGGAUAACCUCUCUAUGG
RNA 2: GGGAAUGGAUCCACAUCUACGAAUUCGUACACACUAGAGAGGUUAUCCGCUCACCGAGAUCGGAAGAGCACACGU
B23: target 1 insU 3' of 5,insG 3' of 1 (mixed)
RNA 1: CACCCGUGCAAAAAUGCAGGGGUCUAAAACUGAGCGGAUAACCUCUCUAUGG
RNA 2: GGGAAUGGAUCCACAUCUACGAAUUCGUACCAUAGAGAGGUUAUCCGUCUCAGCCGAGAUCGGAAGAGCACACGU
B24: target 1 insU 3' of 17,insG 3' of 4 (mixed)
RNA 1: CACCCGUGCAAAAAUGCAGGGGUCUAAAACUGAGCGGAUAACCUCUCUAUGG
RNA 2: GGGAAUGGAUCCACAUCUACGAAUUCGUACCAUAGUAGAGGUUAUCCGCGUCACCGAGAUCGGAAGAGCACACGU
B25: target 1 C4A,G12U (mixed)
RNA 1: CACCCGUGCAAAAAUGCAGGGGUCUAAAACUGAGCGGAUAACCUCUCUAUGG
RNA 2: GGGAAUGGAUCCACAUCUACGAAUUCGUACCAUAGAGAGUUUAUCCGAUCACCGAGAUCGGAAGAGCACACGU
B26: target 1 insA 3' of 22,insC 3' of 18 (mixed)
RNA 1: CACCCGUGCAAAAAUGCAGGGGUCUAAAACUGAGCGGAUAACCUCUCUAUGG
RNA 2: GGGAAUGGAUCCACAUCUACGAAUUCGUACACAUACGAGAGGUUAUCCGCUCACCGAGAUCGGAAGAGCACACGU
B27: target 1 C7U (mixed)
RNA 1: CACCCGUGCAAAAAUGCAGGGGUCUAAAACUGAGCGGAUAACCUCUCUAUGG
RNA 2: GGGAAUGGAUCCACAUCUACGAAUUCGUACCAUAGAGAGGUUAUUCGCUCACCGAGAUCGGAAGAGCACACGU
B28: target 1 del1,del8 (mixed)
RNA 1: CACCCGUGCAAAAAUGCAGGGGUCUAAAACUGAGCGGAUAACCUCUCUAUGG
RNA 2: GGGAAUGGAUCCACAUCUACGAAUUCGUACCAUAGAGAGGUUACCGCUCCCGAGAUCGGAAGAGCACACGU

Biological target: T1, EsCas13d, nuclease-dead
Test: crRNA (strand 1, pre-loaded); Mg2+; 40 mM Tris-HCl pH 7.5, 150 mM NaCl, 6 mM MgCl2, 1 mM DTT, 0.1% Tween-20, 0.2 mg/ml BSA; 25 C; 10 min per concentration, then washed
Settings: tags: His6-TwinStrep-SUMO cleaved; N-terminal SNAP kept (SNAP-Surface 488); label: 3' end held by stalled T7 RNA polymerase

In order of rising Kd:
1. B22  5.9 ± 0.23 nM
2. B20  6 ± 0.4 nM
3. B19  7.21 ± 0.35 nM
4. B23  7.4 ± 0.6 nM
5. B27  7.5 ± 0.4 nM
6. B4  7.8 ± 0.7 nM
7. B25  8.5 ± 1.3 nM
8. B11  10 ± 0.5 nM
9. B5  13.1 ± 0.8 nM
10. B2  14.1 ± 0.7 nM
11. B7  14.2 ± 1.3 nM
12. B24  14.5 ± 1.3 nM
13. B3  15.7 ± 1.2 nM
14. B28  17.3 ± 1.7 nM
15. B18  17.5 ± 1.2 nM
16. B15  19.7 ± 1 nM
17. B17  20.5 ± 2.4 nM
18. B13  20.7 ± 0.7 nM
19. B14  23 ± 1.5 nM
20. B1  23.7 ± 2 nM
21. B21  28.1 ± 2.6 nM
22. B12  34.6 ± 2.2 nM
23. B26  47 ± 8 nM
24. B10  59 ± 21 nM
25. B6  68 ± 11 nM
26. B9  84 ± 24 nM
27. B16  87 ± 23 nM
28. B8  90 ± 40 nM
